Source: patent US6403765B1, “Truncated Apaf-1 and methods of use thereof” (Thomas Jefferson University, priority 1998, dated 2002)
Where a chain is given by its changes, count along the chain named. Names may count otherwise.

Assays:
T7-tagged Bcl-xL = target: T1, T7-tagged Bcl-xL (Homo sapiens, UniProt Q07817); assay: Co-immunoprecipitation of Flag-tagged Apaf-1 variants or procaspase-9 with T7-tagged Bcl-xL in 293 cells; assay type: binding; conditions: anti-Flag immunoprecipitation, anti-T7 blot, 36 hours, FIG. 16
T1 construct: expressed in transfected cells; host or cells: 293 cells
T1 sequence (Q07817 whole entry): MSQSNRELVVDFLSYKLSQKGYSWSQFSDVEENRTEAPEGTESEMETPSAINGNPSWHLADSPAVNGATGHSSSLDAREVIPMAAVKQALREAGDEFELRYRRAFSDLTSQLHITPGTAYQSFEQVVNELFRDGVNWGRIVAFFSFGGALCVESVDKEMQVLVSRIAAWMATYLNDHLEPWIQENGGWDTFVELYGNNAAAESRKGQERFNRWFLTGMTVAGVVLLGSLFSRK
Description: In vivo interaction experiments between Apaf-1 variants and Bcl-xL were performed. To analyze the ability of Apaf-1 to interact with Bcl-xL, 293 cells were co-transfected with constructs encoding T7-tagged Bcl-xL and constructs encoding Flag-tagged Apaf-97 (FIG. 16, lane 1), Apaf-1 (FIG. 16, lane 2), Apaf-530 (FIG. 16, lane 3) Apaf-530ΔCARD (FIG. 16, lane 4), or procaspase-9 C287A (FIG. 16, lane 5). After 36 hours, extracts were prepared and immunoprecipitated with a monoclonal antibody to the Flag epitope. The immunoprecipitates (FIG. 16, upper panel) were analyzed by SDS-PAGE and immunoblotted with a horseradish peroxidase-conjugated T7 antibody. The corresponding cellular extracts were also analyzed by SDS-PAGE and immunoblotted with a horseradish peroxides-conjugated T7 antibody (FIG. 16, middle panel) or an anti-Flag antibody (FIG. 16, lower panel).

procaspase-9 = target: T2, procaspase-9 (Homo sapiens, UniProt P55211); assay: In vitro caspase 9 activation assay: recombinant Apaf-1 variants incubated with in vitro translated procaspase-9; assay type: biochemical; conditions: bacterial lysates with truncated Apaf-1 variants, FIG. 2B
T2 construct: schematic representation of full length procaspase-9; made in house; host or cells: coupled in vitro transcription/translation in rabbit reticulocyte lysate (TNT Kit, Promega)
T2 sequence (P55211 1-416): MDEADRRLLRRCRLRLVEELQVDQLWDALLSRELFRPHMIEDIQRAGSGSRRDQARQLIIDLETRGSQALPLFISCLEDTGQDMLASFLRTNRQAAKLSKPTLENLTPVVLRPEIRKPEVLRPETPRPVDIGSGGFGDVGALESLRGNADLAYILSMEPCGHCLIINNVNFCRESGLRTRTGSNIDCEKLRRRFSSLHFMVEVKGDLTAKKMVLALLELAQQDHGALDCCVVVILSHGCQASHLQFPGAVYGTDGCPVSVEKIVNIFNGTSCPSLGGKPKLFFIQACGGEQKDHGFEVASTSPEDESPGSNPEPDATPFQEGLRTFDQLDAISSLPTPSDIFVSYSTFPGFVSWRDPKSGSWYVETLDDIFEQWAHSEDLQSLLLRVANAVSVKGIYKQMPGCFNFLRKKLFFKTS
Description: SDS sample buffer was then added to each sample, boiled and subjected to SDS-PAGE analysis followed by autoradiography. In FIG. 2A procaspase-9 was in vitro translated in the presence of ^35S-methionine. Following translation procaspase-9 was desalted by gel filtration through a biospin column (BioRad) to remove unincorporated methionine and free nucleotides. Desalted procaspase-9 was then incubated with 200 ng Ni^2+-affinity purified bacterially expressed recombinant Apaf-530 (WT or K149R mutant) in the presence or absence of cytochrome c or dATP or both for 2 h at 30° C. A mock sample containing Ni^2+-affinity purified material from bacteria transformed with an empty vector was used as a negative control. Following incubation the products were analyzed by SDS-PAGE and autoradiography. In FIG. 2B^35S-labeled procaspase-9 (as described above) was incubated with bacterial lysates containing truncated Apaf-1 variants as indicated and then analyzed as above (2B upper panel). The bacterial lysates were analyzed by SDS-PAGE and immunoblotted with an Apaf-1 antibody which recognizes the N-terminus of Apaf-1 (lanes 2-6) and an anti T7-tag antibody (lanes 7-8) to confirm expression and equivalent concentration of the different Apaf-1 variants (2B lowerpanel). The molecular mass markers are indicated to the right of the lower panel.
^35S-labeled caspases were obtained by in vitro translation in the presence of ^35S-methionine using a coupled transcription/translation system in rabbit reticulocyte lysate using TNT Kit (Promega) according to the manufacturer's recommendations.
To determine the role of the WD-40 repeat in the mechanism of Apaf-1-induced processing of procaspase-9, truncated Apaf-1 (Apaf-530) lacking its WD-40 repeats (FIG. 1) was expressed and purified. To reconstitute a recombinant caspase-9 activation system, the truncated Apaf-530 was incubated with in vitro translated recombinant procaspase-9 in the presence or absence of cytochrome c and dATP. […] It was previously shown that mutation of CED-4 K165R which is required for nucleotide binding destroys its activity (Chinnaiyan et al., Nature 388:728-729, 1997; Jarnes et al., Curr. Biol. 7:246-252, 1997; Seshagiri and Miller, Curr. Biol. 7:455-460, 1997). […] Therefore, either binding of Apaf-1 to cytochrome c and dATP or deletion of the repeats could induce a conformational change enabling Apaf-1 to bind and process procaspase-9.
In FIG. 3, ^35S-labeled WT or mutant D330A, D315A or C287A mutants of procaspase-9 or prodomainless procaspase-9 (Δpro, residues 134-416) were incubated with buffer (lanes 1, 4, 7, 10, 13), purified Apaf-530 (lanes 2, 5, 8, 11, 14) or mock purified material (lanes, 3, 6, 9, 12, 15) and then analyzed by SDS-PAGE and autoradiography.

B1: procaspase-9: Flag-tagged procaspase-9 C287A co-transfected with T7-tagged Bcl-xL (protein, UniProt P55211 1-416, looked up, variant C287A)
pro-form: T2 sequence (P55211 1-416) with C287A
modifications: pro-form Flag tag
notes: Flag-tagged procaspase-9 C287A co-transfected with T7-tagged Bcl-xL
B1 was tested. Which “co-immunoprecipitation with Bcl-xL” value (T7-tagged Bcl-xL) did it give?
The value was “capable of immunoprecipitating”.

B2: Apaf-420: truncated Apaf-1, residues 1-420, minimal conserved sequence between Apaf-1 and CED-4 (protein, UniProt O14727 1-420, looked up, fragment)
chain: MDAKARNCLLQHREALEKDIKTSYIMDHMISDGFLTISEEEKVRNEPTQQQRAAMLIKMILKKDNDSYVSFYNALLHEGYKDLAALLHDGIPVVSSSSGKDSVSGITSYVRTVLCEGGVPQRPVVFVTRKKLVNAIQQKLSKLKGEPGWVTIHGMAGCGKSVLAAEAVRDHSLLEGCFPGGVHWVSVGKQDKSGLLMKLQNLCTRLDQDESFSQRLPLNIEEAKDRLRILMLRKHPRSLLILDDVWDSWVLKAFDSQCQILLTTRDKSVTDSVMGPKYVVPVESSLGKEKGLEILSLFVNMKKADLPEQAHSIIKECKGSPLVVSLIGALLRDFPNRWEYYLKQLQNKQFKRIRKSSSYDYEALDEAMSISVEMLREDIKDYYTDLSILQKDVKVPTKVLCILWDMETEEVEDILQEFVN
How did the “less activity than Apaf-530 in promoting procaspase-9 processing” value (procaspase-9) turn out when B2 was run?
The value was about 90%.

B3: Apaf-WD: WD-40 repeat region of Apaf-1, residues 530-1194 (protein, UniProt O14727 530-1194, looked up, fragment)
chain: RHILDEKDCAVSENFQEFLSLNGHLLGRQPFPNIVQLGLCEPETSEVYQQAKLQAKQEVDNGMLYLEWINKKNITNLSRLVVRPHTDAVYHACFSEDGQRIASCGADKTLQVFKAETGEKLLEIKAHEDEVLCCAFSTDDRFIATCSVDKKVKIWNSMTGELVHTYDEHSEQVNCCHFTNSSHHLLLATGSSDCFLKLWDLNQKECRNTMFGHTNSVNHCRFSPDDKLLASCSADGTLKLWDATSANERKSINVKQFFLNLEDPQEDMEVIVKCCSWSADGARIMVAAKNKIFLFDIHTSGLLGEIHTGHHSTIQYCDFSPQNHLAVVALSQYCVELWNTDSRSKVADCRGHLSWVHGVMFSPDGSSFLTSSDDQTIRLWETKKVCKNSAVMLKQEVDVVFQENEVMVLAVDHIRRLQLINGRTGQIDYLTEAQVSCCCLSPHLQYIAFGDENGAIEILELVNNRIFQSRFQHKKTVWHIQFTADEKTLISSSDDAEIQVWNWQLDKCIFLRGHQETVKDFRLLKNSRLLSWSFDGTVKVWNIITGNKEKDFVCHQGTVLSCDISHDATKFSSTSADKTAKIWSFDLLLPLHELRGHNGCVRCSAFSVDSTLLATGDDNGEIRIWNVSNGELLHLCAPLSEEGAATHGGWVTDLCFSPDGKMLIS
Which “activity of the Apaf-1 variant in promoting activation of procaspase-9” value (procaspase-9) does the source give for B3 here?
Its value is “inactive”.

B4: Apaf-350: truncated Apaf-1, residues 1-350 (protein, UniProt O14727 1-350, looked up, fragment)
chain: MDAKARNCLLQHREALEKDIKTSYIMDHMISDGFLTISEEEKVRNEPTQQQRAAMLIKMILKKDNDSYVSFYNALLHEGYKDLAALLHDGIPVVSSSSGKDSVSGITSYVRTVLCEGGVPQRPVVFVTRKKLVNAIQQKLSKLKGEPGWVTIHGMAGCGKSVLAAEAVRDHSLLEGCFPGGVHWVSVGKQDKSGLLMKLQNLCTRLDQDESFSQRLPLNIEEAKDRLRILMLRKHPRSLLILDDVWDSWVLKAFDSQCQILLTTRDKSVTDSVMGPKYVVPVESSLGKEKGLEILSLFVNMKKADLPEQAHSIIKECKGSPLVVSLIGALLRDFPNRWEYYLKQLQNKQF
With B4 as the molecule, how does the “activity of the Apaf-1 variant in promoting activation of procaspase-9” value (procaspase-9) read?
Its value is “further reduced its activity”.
